Legend:
core protein gp16 = target: T1, core protein gp16 (bacteriophage T7, UniProt P03726 1-1318); assay: cryo-EM structure; mature T7 virions, in situ; entire particle asymmetric 6.1 Å; local reconstructions of core complex 3 Å (four-fold), portal 2.5 Å (twelve-fold), portal–tail complex 2.7 Å (six-fold); conditions: both partners purified
T1 construct: core protein gp16 of bacteriophage T7, as it stands in the mature virion; Four-fold ring in the core of mature T7; source: T7 virions propagated in E. coli, purified (PEG precipitation, CsCl ultracentrifugation)
T1 sequence (looked up): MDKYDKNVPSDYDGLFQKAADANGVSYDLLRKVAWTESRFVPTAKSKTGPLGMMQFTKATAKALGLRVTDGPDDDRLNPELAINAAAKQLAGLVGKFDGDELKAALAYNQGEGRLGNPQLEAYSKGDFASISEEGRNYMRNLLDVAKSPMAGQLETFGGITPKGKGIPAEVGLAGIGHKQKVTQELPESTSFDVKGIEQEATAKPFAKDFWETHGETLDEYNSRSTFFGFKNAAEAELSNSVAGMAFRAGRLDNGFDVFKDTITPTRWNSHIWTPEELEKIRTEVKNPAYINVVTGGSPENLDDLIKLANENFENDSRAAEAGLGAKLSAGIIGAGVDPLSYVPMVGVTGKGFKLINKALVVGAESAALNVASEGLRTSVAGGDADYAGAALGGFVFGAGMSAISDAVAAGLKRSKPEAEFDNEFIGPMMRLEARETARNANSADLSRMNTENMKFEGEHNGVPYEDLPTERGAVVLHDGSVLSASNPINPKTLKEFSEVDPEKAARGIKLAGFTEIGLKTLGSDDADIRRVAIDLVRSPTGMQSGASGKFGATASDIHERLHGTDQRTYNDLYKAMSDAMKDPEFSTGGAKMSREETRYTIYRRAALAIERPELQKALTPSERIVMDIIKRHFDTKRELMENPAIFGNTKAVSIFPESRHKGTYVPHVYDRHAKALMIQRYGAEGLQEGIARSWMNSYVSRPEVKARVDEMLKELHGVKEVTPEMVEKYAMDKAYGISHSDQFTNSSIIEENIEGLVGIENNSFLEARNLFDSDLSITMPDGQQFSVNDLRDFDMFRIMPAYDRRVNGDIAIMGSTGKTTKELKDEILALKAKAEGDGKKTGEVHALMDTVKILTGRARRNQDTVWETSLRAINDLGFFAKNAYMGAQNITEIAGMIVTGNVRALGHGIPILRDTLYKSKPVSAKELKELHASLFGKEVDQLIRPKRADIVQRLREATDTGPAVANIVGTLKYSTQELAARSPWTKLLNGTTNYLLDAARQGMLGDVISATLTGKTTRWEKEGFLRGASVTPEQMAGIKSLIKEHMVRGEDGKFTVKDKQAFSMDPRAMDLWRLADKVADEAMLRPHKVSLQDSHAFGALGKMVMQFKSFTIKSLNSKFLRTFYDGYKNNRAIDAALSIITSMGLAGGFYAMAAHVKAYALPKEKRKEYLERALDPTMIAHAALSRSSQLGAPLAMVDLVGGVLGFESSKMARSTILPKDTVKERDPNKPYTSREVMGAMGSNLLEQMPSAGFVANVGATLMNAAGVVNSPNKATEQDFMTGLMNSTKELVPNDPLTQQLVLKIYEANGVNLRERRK

[1] = target: the molecule itself; assay: as above
portal protein gp8 = target: T2, portal protein gp8 (bacteriophage T7, UniProt P03728 1-536); assay: cryo-EM structure; DNA-ejected T7: purified mature T7 incubated with rough LPS (250 µg/mL) at 37°C for 3 h; entire particle asymmetric 8.2 Å; portal–tail complex 3.5 Å (six-fold); conditions: both partners purified
T2 construct: portal protein gp8 of bacteriophage T7, as it stands in the virion; Native virion protein; also called dodecameric portal; source: T7 virions propagated in E. coli, purified (PEG precipitation, CsCl ultracentrifugation); copies: 12
T2 sequence (looked up): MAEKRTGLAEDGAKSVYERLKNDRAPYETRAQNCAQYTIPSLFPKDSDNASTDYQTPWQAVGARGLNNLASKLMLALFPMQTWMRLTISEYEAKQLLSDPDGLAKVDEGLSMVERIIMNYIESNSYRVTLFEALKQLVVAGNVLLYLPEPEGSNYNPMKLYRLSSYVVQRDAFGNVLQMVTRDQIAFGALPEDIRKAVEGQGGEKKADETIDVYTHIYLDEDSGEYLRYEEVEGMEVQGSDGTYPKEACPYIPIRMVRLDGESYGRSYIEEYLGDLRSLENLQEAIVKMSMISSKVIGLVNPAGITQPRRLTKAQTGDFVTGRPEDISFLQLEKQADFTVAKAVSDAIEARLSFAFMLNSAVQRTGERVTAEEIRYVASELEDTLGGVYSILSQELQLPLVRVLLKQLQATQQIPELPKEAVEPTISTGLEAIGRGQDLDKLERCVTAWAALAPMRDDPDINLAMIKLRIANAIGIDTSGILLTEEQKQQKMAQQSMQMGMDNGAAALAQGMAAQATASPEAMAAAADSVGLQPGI

nozzle protein gp12 = target: T3, nozzle protein gp12 (bacteriophage T7, UniProt P03747 1-794); assay: as above; conditions: both partners purified
T3 construct: nozzle protein gp12 of bacteriophage T7, as it stands in the virion; Native virion protein; also called tail nozzle; source: T7 virions propagated in E. coli, purified (PEG precipitation, CsCl ultracentrifugation)
T3 sequence (looked up): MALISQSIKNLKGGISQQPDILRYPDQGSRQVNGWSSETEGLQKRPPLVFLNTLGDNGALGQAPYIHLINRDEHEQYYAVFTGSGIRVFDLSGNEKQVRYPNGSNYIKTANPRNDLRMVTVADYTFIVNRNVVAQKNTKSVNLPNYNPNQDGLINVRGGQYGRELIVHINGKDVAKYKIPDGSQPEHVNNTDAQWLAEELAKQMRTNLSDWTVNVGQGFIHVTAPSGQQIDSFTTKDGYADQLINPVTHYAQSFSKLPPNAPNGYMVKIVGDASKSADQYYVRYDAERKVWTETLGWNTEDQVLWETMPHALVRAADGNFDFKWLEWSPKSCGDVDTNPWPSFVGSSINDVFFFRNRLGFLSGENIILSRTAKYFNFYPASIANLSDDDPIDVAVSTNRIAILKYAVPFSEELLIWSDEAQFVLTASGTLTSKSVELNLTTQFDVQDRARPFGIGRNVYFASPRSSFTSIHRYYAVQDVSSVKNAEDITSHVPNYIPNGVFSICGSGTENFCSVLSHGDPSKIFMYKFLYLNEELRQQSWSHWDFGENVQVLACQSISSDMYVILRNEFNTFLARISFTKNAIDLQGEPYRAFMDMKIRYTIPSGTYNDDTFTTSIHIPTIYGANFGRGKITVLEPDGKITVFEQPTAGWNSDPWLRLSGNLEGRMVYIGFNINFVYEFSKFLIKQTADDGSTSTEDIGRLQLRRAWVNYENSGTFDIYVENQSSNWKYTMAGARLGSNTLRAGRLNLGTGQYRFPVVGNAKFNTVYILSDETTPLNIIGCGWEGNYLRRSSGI

B1: core protein gp15 (natural protein, bacteriophage T7, UniProt P03725 1-747, looked up)
chain: MSKIESALQAAQPGLSRLRGGAGGMGYRAATTQAEQPRSSLLDTIGRFAKAGADMYTAKEQRARDLADERSNEIIRKLTPEQRREALNNGTLLYQDDPYAMEALRVKTGRNAAYLVDDDVMQKIKEGVFRTREEMEEYRHSRLQEGAKVYAEQFGIDPEDVDYQRGFNGDITERNISLYGAHDNFLSQQAQKGAIMNSRVELNGVLQDPDMLRRPDSADFFEKYIDNGLVTGAIPSDAQATQLISQAFSDASSRAGGADFLMRVGDKKVTLNGATTTYRELIGEEQWNALMVTAQRSQFETDAKLNEQYRLKINSALNQEDPRTAWEMLQGIKAELDKVQPDEQMTPQREWLISAQEQVQNQMNAWTKAQAKALDDSMKSMNKLDVIDKQFQKRINGEWVSTDFKDMPVNENTGEFKHSDMVNYANKKLAEIDSMDIPDGAKDAMKLKYLQADSKDGAFRTAIGTMVTDAGQEWSAAVINGKLPERTPAMDALRRIRNADPQLIAALYPDQAELFLTMDMMDKQGIDPQVILDADRLTVKRSKEQRFEDDKAFESALNASKAPEIARMPASLRESARKIYDSVKYRSGNESMAMEQMTKFLKESTYTFTGDDVDGDTVGVIPKNMMQVNSDPKSWEQGRDILEEARKGIIASNPWITNKQLTMYSQGDSIYLMDTTGQVRVRYDKELLSKVWSENQKKLEEKAREKALADVNKRAPIVAATKAREAAAKRVREKRKQTPKFIYGRKE
notes: core protein gp15 of bacteriophage T7, as it stands in the mature virion; Eight-fold ring in the core of mature T7; source: T7 virions propagated in E. coli, purified (PEG precipitation, CsCl ultracentrifugation)
binding result (core protein gp16): binds | stoichiometry N [1]: 8

B2: adaptor protein gp11 (natural protein, bacteriophage T7, UniProt P03746 1-196, looked up)
chain: MRSYDMNVETAAELSAVNDILASIGEPPVSTLEGDANADAANARRILNKINRQIQSRGWTFNIEEGITLLPDVYSNLIVYSDDYLSLMSTSGQSIYVNRGGYVYDRTSQSDRFDSGITVNIIRLRDYDEMPECFRYWIVTKASRQFNNRFFGAPEVEGVLQEEEDEARRLCMEYEMDYGGYNMLDGDAFTSGLLTR
notes: adaptor protein gp11 of bacteriophage T7, as it stands in the virion; Native virion protein; source: T7 virions propagated in E. coli, purified (PEG precipitation, CsCl ultracentrifugation); copies: 12
binding result (portal protein gp8): binds | binding result (nozzle protein gp12): binds | stoichiometry N [1]: 12
